Assay results taken from patent publication US20240294595A1 (ARIZONA BOARD OF REGENTS ON BEHALF OF THE UNIVERSITY OF …, published 2024).
Where no end group is shown, it is not given here. [ ]: non-standard residue; d: D form. The star is where a group is joined. βGlc = OC[C@H]1O[C@@H](*)[C@H](O)[C@@H](O)[C@@H]1O; Nle = CCCC[C@H](N)C(=O)O

T1: VPAC1
T1 sequence (P32241 whole entry, species assumed, looked up): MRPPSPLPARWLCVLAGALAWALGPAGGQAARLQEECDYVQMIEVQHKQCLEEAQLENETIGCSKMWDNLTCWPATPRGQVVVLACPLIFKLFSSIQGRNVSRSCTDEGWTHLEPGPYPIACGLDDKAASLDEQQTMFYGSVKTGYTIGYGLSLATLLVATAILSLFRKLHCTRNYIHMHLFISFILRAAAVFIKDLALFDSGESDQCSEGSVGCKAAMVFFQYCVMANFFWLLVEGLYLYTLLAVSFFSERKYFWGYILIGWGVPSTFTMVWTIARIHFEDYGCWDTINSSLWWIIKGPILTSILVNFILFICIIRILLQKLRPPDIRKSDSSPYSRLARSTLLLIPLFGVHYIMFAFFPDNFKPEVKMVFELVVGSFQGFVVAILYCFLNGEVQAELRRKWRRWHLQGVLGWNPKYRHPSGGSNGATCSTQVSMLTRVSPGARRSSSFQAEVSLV

T2: VPAC2
T2 sequence (P41587 whole entry, species assumed, looked up): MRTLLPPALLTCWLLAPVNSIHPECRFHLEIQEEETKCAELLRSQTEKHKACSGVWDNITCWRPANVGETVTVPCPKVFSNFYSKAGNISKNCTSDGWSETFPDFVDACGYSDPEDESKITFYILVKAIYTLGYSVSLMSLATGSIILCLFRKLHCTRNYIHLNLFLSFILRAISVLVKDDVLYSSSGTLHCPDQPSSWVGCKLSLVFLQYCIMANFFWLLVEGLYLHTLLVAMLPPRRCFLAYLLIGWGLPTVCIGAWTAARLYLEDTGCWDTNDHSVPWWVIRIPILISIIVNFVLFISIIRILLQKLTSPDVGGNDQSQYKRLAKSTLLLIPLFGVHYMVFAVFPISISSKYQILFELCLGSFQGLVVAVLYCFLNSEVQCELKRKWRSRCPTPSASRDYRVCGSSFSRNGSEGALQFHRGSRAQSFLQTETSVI


What was measured:
VPAC1 = target: T1, VPAC1; assay: cell-based or functional assay
VPAC2 = target: T2, VPAC2; assay: cell-based or functional assay

EC50 (agonist) (VPAC1) | EMax (agonist) (VPAC1) | EC50 (agonist) (VPAC2) | EMax (agonist) (VPAC2) | Binder
1.3 nM | 90% | 241 nM | 104% | HSDGIFTDSYSRYRKQXAVKKYLAAVLS (D-Serine at 2 (s); L-Nor-Leucine at 17 (Ñ, written X in letters); Ser 28 = L-Ser(β-D-Glc)) [HsDGIFTDSYSRYRKQÑAVKKYLAAVL-Ser(Glc)]
4.8 nM | 90% | 654 nM | 107% | HSDGIFTDSYSRYRKQXAVKKYLAAVS (D-Serine at 2 (s); L-Nor-Leucine at 17 (Ñ, written X in letters); Ser 27 = L-Ser(β-D-Glc)) [HsDGIFTDSYSRYRKQÑAVKKYLAAV-Ser(Glc)]
– | 100% | – | – | HSDGIFTDSYSRYRKQMAVKKYLAAVL (ends and bridges not checked) [PACAP1-27]

The remaining lines, values behind:

Binder | EC50 (agonist) (VPAC1) | EMax (agonist) (VPAC1) | EC50 (agonist) (VPAC2) | EMax (agonist) (VPAC2)
H[dS]DGIFADSYSRYRKQ[Nle]AVKKYLAAVS(βGlc)L-NH2 (ends and bridges not checked) [HsDGIFADSYSRYRKQÑAVKKYLAAV-Ser(Glc)-L] | 1620 nM | 78% | – | –
HSDGIFADSYSRYRKQXAVKKYLAAVLS (D-Serine at 2 (s); L-Nor-Leucine at 17 (Ñ, written X in letters); Ser 28 = L-Ser(β-D-Glc)) [HsDGIFADSYSRYRKQÑAVKKYLAAVL-Ser(Glc)] | 78.8 nM | 93% | > 2500 nM | -42%
HSDGIFADSYSRYRKQXAVKKYLAAVS (D-Serine at 2 (s); L-Nor-Leucine at 17 (Ñ, written X in letters); Ser 27 = L-Ser(β-D-Glc)) [HsDGIFADSYSRYRKQÑAVKKYLAAV-Ser(Glc)] | 1370 nM | 85% | – | –
HSDGIFTDSYSRYRKQLAVKKYLAAVLS(melibiose)-NH2 [HSDGIFTDSYSRYRKQLAVKKYLAAVL-Ser(Mel)] | 0.55 nM | 102% | 9.4 nM | 86%
H[dS]DGIFTDSYSRYRKQ[Nle]AVKKYLAALS(βGlc)L-NH2 (ends and bridges not checked) [HsDGIFTDSYSRYRKQÑAVKKYLAAL-Ser(Glc)-L] | 5.9 nM | 93% | > 2500 nM | -95%
